We go through two substances from patent publication US20230085357A1, “INJECTABLE HIGH CONCENTRATION PHARMACEUTICAL FORMULATIONS AND METHODS OF MANUFACTURING AND USE THEREOF” (Xeris Pharmaceuticals, Inc., priority 2021, published 2023).

A short description of series [1]: Bevacizumab pharmacokinetics, plasma concentration after single 100 mg dose IV or SC. It counts as in vivo. The following applies: female Gottingen minipigs, mean.
The conditions of series [2]: IV product; cited from earlier work.
[3] abbreviates: single dose, plasma, uncorrected.

Consider Avastin ®, for which, in series [1] (dose-corrected), the AUC336/D worked out at 3084 kg·µg·h/mL/mg, the AUClast/D was found to be 5215 kg·µg·h/mL/mg, the “AUC∞/D” value was 5357 kg·µg·h/mL/mg and the Cmax/D stood at 24.7 kg·µg/mL/mg. In addition, the T1/2 in series [1] (single dose, plasma) is 227 h. In series [1] (setting [3]), the AUC336 came to 28380 µg·h/mL; the AUClast is 47990 µg·h/mL; the “AUC∞” value turned out to be 49271 µg·h/mL; the peak concentration (Cmax) (in general, the maximum level reached in the sampled fluid or tissue) was 230 µg/mL.

For “bevacizumab: human monoclonal antibody that binds Vascular Endothelial Growth Factor (VEGF), commercialized under the AVASTIN® brand”, in series [2], the average clearance rate result is given as “about 0.262 L/day” and the half-life result is listed as “about 20 days”.
